Test results: article PMC9079172, “BAG6 prevents the aggregation of neurodegeneration-associated fragments of TDP43” (iScience, 2022)

Target: T1, BAG6, wild type, FLAG-tagged, exogenously overexpressed (pRK5-FLAG-Bag6) (UniProt P46379 1-1132)
T1 construct: BAG6, wild type, from pRK5-FLAG-Bag6 (Liu et al., 2014); In HEK293T cells the anti-BAG6 antibody also precipitates endogenous BAG6; also called wild type BAG6; ^fBAG6; source: HEK293T or BAG6-KO HEK293T, transfected, in lysate; not shown: FLAG, N-terminal, kept
Experiment: co-IP; anti-BAG6 IP from soluble fractions of HEK293T cells overexpressing the fragments and BAG6 or BAG6ΔUBL; blots with anti-TDP43, anti-FLAG or anti-Myc; lysis/wash buffer 50 mM HEPES pH 7.5, 10% glycerol, 0.05% NP-40, 150 mM NaCl, 4°C
Conditions: partners not purified

T1 sequence (P46379 whole entry): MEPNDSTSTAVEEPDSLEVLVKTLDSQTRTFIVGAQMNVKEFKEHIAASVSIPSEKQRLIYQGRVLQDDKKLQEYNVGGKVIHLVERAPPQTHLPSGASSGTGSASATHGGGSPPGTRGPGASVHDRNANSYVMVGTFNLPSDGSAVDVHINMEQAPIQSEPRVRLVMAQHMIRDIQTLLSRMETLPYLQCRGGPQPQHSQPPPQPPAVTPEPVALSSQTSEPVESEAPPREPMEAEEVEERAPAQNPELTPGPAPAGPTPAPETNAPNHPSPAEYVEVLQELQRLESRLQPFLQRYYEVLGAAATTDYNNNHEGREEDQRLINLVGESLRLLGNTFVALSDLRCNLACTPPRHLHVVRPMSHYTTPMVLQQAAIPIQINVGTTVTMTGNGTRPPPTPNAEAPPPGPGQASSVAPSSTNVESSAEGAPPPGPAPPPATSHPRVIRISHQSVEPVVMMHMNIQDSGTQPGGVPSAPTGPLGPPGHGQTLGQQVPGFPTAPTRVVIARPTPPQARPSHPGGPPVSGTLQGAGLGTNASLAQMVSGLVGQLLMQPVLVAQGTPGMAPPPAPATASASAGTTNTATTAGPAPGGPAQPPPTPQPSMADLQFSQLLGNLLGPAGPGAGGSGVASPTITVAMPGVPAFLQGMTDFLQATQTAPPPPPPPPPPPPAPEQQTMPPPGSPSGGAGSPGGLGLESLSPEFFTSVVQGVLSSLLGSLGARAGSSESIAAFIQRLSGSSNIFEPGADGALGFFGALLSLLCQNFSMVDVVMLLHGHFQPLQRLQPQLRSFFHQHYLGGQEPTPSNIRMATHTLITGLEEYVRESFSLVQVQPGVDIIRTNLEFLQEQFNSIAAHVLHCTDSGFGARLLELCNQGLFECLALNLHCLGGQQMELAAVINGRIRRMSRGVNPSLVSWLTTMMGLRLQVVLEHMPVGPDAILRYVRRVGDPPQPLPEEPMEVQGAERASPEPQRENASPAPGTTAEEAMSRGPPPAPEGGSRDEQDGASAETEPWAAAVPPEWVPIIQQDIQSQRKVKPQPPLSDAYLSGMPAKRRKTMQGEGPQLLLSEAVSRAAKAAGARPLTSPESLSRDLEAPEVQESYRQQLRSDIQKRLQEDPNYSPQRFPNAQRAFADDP

fold affinity relative to TDP43^247 (densitometry of the co-immunoprecipitate): ~5 fold
B1: TDP43^219 (Val^219-TDP43^f), C-terminal fragment of human TDP43, amino acids 219 - 414, bearing N-terminal Val and a C-terminal FLAG tag (domain or fragment, UniProt Q13148 219-414, looked up)
chain: VVFIPKPFRAFAFVTFADDQIAQSLCGEDLIIKGISVHISNAEPKHNSNRQLERSGRFGGNPGGFGNQGGFGNSRGGGAGLGNNQGSNMGGGMNFGAFSINPAMMAAAQAALQSSWGMMGMLASQQNQSGPSGNNQNQGNMQREPNQAFGSGNNSYSGSNSGAAIGWGSASNAGSGSGFNGGFGSSMDSKSSGWGM
notes: the part up to the last residue of Ub is cut off co-translationally; not shown: FLAG, C-terminal, kept
